Bridge positions count the residues as written; N and C are the ends. Square brackets hold non-standard residues; d marks the D form. Primed or numbered codes have the meaning given here. Side chains are listed from the residue outwards. Ends that are not written are not given here. * marks the point of attachment. Biotin = O=C1N[C@H]2[C@H](CS[C@H]2CCCCC(=O)*)N1; NMeW = CN[C@@H](Cc1c[nH]c2ccccc12)C(=O)O; 1Nal = N[C@@H](Cc1cccc2ccccc12)C(=O)O; NMeY = CN[C@@H](Cc1ccc(O)cc1)C(=O)O; NMeR = CN[C@@H](CCCNC(=N)N)C(=O)O; NMeF = CN[C@@H](Cc1ccccc1)C(=O)O; NMeT = CN[C@H](C(=O)O)[C@@H](C)O; NMeL = CN[C@@H](CC(C)C)C(=O)O; Tle = CC(C)(C)[C@H](N)C(=O)O; NMeS = CN[C@@H](CO)C(=O)O; NMeA = CN[C@@H](C)C(=O)O; Nle = CCCC[C@H](N)C(=O)O; PEG2′ = PEG2 spacer unit; Aib = CC(C)(N)C(=O)O; Sar = CNCC(=O)O
B1: RRAPGKLQCLASYCWLFWTG-Nle-A (peptide)
peptide: RRAPGKLQCLASYCWLFWTG[Nle]A
modifications: not fully specified; printed as RRAPGKLQCLASYCWLFWTG-Nle-A; cysteine pairing not given here
B2: RRAPGKLQCLASYCWLFWTG-Tle-A (peptide)
peptide: RRAPGKLQCLASYCWLFWTG[Tle]A
modifications: not fully specified; printed as RRAPGKLQCLASYCWLFWTG-Tle-A; cysteine pairing not given here
B3: RRAPGKLQCLASYCWLFWTGFA (peptide)
peptide: RRAPGKLQCLASYCWLFWTGFA
B4: RRAPGKLQCLASYCWLFWTG-(1-Nal)-A (peptide)
peptide: RRAPGKLQCLASYCWLFWTG[1Nal]A
modifications: not fully specified; printed as RRAPGKLQCLASYCWLFWTG-(1-Nal)-A; cysteine pairing not given here
B5: RRAPGKLQCLASYCWLFWT-Aib-IA (peptide)
peptide: RRAPGKLQCLASYCWLFWT[Aib]IA
modifications: not fully specified; printed as RRAPGKLQCLASYCWLFWT-Aib-IA; cysteine pairing not given here
B6: RRAPGKLQCLASYCWLFWTGIK (peptide)
peptide: RRAPGKLQCLASYCWLFWTGIK
B7: compound 18 (peptide)
peptide: RRAPGKLTCLAK([PEG2′-Biotin])YCWLFWTGIA-NH2
modifications: cysteine pairing not given here
B8: RRAPGKLQCLASYCWLFWTGKA (peptide)
peptide: RRAPGKLQCLASYCWLFWTGKA
B9: RRAPGKLQCLASYCWLFWTKIA (peptide)
peptide: RRAPGKLQCLASYCWLFWTKIA
B10: RRAPGKLQCLASYCWLFWKGIA (peptide)
peptide: RRAPGKLQCLASYCWLFWKGIA
B11: RRAPGKLQCLASYCWLFKTGIA (peptide)
peptide: RRAPGKLQCLASYCWLFKTGIA
B12: RRAPKKLQCLASYCWLFWTGIA (peptide)
peptide: RRAPKKLQCLASYCWLFWTGIA
B13: RRAKGKLQCLASYCWLFWTGIA (peptide)
peptide: RRAKGKLQCLASYCWLFWTGIA
B14: RRKPGKLQCLASYCWLFWTGIA (peptide)
peptide: RRKPGKLQCLASYCWLFWTGIA
B15: RKAPGKLQCLASYCWLFWTGIA (peptide)
peptide: RKAPGKLQCLASYCWLFWTGIA
B16: KRAPGKLQCLASYCWLFWTGIA (peptide)
peptide: KRAPGKLQCLASYCWLFWTGIA
B17: MeArg-RAPGKLTCLASYCWLFWTGIA (peptide)
peptide: [NMeR]RAPGKLTCLASYCWLFWTGIA
modifications: cysteine pairing not given here
B18: compound 4 (peptide)
peptide: RRAPGKLTCLASYCWLFWTGIA-NH2
modifications: cysteine pairing not given here
B19: R-MeArg-APGKLTCLASYCWLFWTGIA (peptide)
peptide: R[NMeR]APGKLTCLASYCWLFWTGIA
modifications: disulfide 9-14 (inferred); not fully specified (C-terminus); printed as R-MeArg-APGKLTCLASYCWLFWTGIA
B20: RR-MeAla-PGKLTCLASYCWLFWTGIA (peptide)
peptide: RR[NMeA]PGKLTCLASYCWLFWTGIA
modifications: disulfide 9-14 (inferred); not fully specified (C-terminus); printed as RR-MeAla-PGKLTCLASYCWLFWTGIA
B21: RRAP-Sar-KLTCLASYCWLFWTGIA (peptide)
peptide: RRAP[Sar]KLTCLASYCWLFWTGIA
modifications: not fully specified; printed as RRAP-Sar-KLTCLASYCWLFWTGIA; cysteine pairing not given here
B22: RRAPGK-MeLeu-TCLASYCWLFWTGIA (peptide)
peptide: RRAPGK[NMeL]TCLASYCWLFWTGIA
modifications: not fully specified (bridges); printed as RRAPGK-MeLeu-TCLASYCWLFWTGIA; cysteine pairing not given here
B23: RRAPGKL-MeThr-CLASYCWLFWTGIA (peptide)
peptide: RRAPGKL[NMeT]CLASYCWLFWTGIA
modifications: cysteine pairing not given here
B24: RRAPGKLTC-MeLeu-ASYCWLFWTGIA (peptide)
peptide: RRAPGKLTC[NMeL]ASYCWLFWTGIA
modifications: not fully specified (bridges); printed as RRAPGKLTC-MeLeu-ASYCWLFWTGIA; cysteine pairing not given here
B25: RRAPGKLTCLA-MeSer-YCWLFWTGIA (peptide)
peptide: RRAPGKLTCLA[NMeS]YCWLFWTGIA
modifications: not fully specified (bridges); printed as RRAPGKLTCLA-MeSer-YCWLFWTGIA; cysteine pairing not given here
B26: RRAPGKLTCLAS-MeTyr-CWLFWTGIA (peptide)
peptide: RRAPGKLTCLAS[NMeY]CWLFWTGIA
modifications: not fully specified (bridges); printed as RRAPGKLTCLAS-MeTyr-CWLFWTGIA; cysteine pairing not given here
B27: compound 21 (peptide)
peptide: PRIRTVGPGSRSASGKLTCLASYCWLFWTGIA-NH2
modifications: cysteine pairing not given here
B28: RRAPGKLTCLASYC-MeTrp-LFWTGIA (peptide)
peptide: RRAPGKLTCLASYC[NMeW]LFWTGIA
modifications: cysteine pairing not given here
B29: RRAPGKLTCLASYCW-MeLeu-FWTGIA (peptide)
peptide: RRAPGKLTCLASYCW[NMeL]FWTGIA
modifications: not fully specified (bridges); printed as RRAPGKLTCLASYCW-MeLeu-FWTGIA; cysteine pairing not given here
B30: RRAPGKLTCLASYCWL-MePhe-WTGIA (peptide)
peptide: RRAPGKLTCLASYCWL[NMeF]WTGIA
modifications: not fully specified (bridges); printed as RRAPGKLTCLASYCWL-MePhe-WTGIA; cysteine pairing not given here
B31: RRAPGKLTCLASYCWLFWT-Sar-IA (peptide)
peptide: RRAPGKLTCLASYCWLFWT[Sar]IA
modifications: not fully specified; printed as RRAPGKLTCLASYCWLFWT-Sar-IA; cysteine pairing not given here
B32: RRAPGKLTCLASYCWLFWTG-MeIle-A (peptide)
peptide: RRAPGKLTCLASYCWLFWTG[MeIle]A
modifications: not fully specified (C-terminus, bridges); printed as RRAPGKLTCLASYCWLFWTG-MeIle-A; cysteine pairing not given here
B33: RRAPGKLTCLASYCWLFWTGI-MeAla (peptide)
peptide: RRAPGKLTCLASYCWLFWTGI[NMeA]
modifications: not fully specified (C-terminus, bridges); printed as RRAPGKLTCLASYCWLFWTGI-MeAla; cysteine pairing not given here
B34: RRaPGKLTCLASYCWLFWTGIA (peptide)
peptide: RR[dA]PGKLTCLASYCWLFWTGIA
modifications: not fully specified (bridges); printed as RRaPGKLTCLASYCWLFWTGIA; cysteine pairing not given here
B35: RRApGKLTCLASYCWLFWTGIA (peptide)
peptide: RRA[dP]GKLTCLASYCWLFWTGIA
modifications: disulfide 9-14 (inferred)
B36: compound 23 (peptide)
peptide: PRI[dR]TVGPGS[dR]SASGKLTCLASYCWLFWTGIA-NH2
modifications: cysteine pairing not given here
B37: RRAPGkLTCLASYCWLFWTGIA (peptide)
peptide: RRAPG[dK]LTCLASYCWLFWTGIA
modifications: disulfide 9-14 (inferred)
B38: RRAPGKLtCLASYCWLFWTGIA (peptide)
peptide: RRAPGKL[dT]CLASYCWLFWTGIA
modifications: not fully specified (C-terminus, bridges); printed as RRAPGKLtCLASYCWLFWTGIA; cysteine pairing not given here
B39: RRAPGKLTClASYCWLFWTGIA (peptide)
peptide: RRAPGKLTC[dL]ASYCWLFWTGIA
modifications: not fully specified (C-terminus, bridges); printed as RRAPGKLTClASYCWLFWTGIA; cysteine pairing not given here
B40: RRAPGKLTCLaSYCWLFWTGIA (peptide)
peptide: RRAPGKLTCL[dA]SYCWLFWTGIA
modifications: not fully specified (bridges); cysteine pairing not given here

target: human Factor IXa (human, UniProt P00740 47-191; P00740 227-461); assay: cell-based or functional assay

| Binder | EC50 [µM], FXa generation assay [µM] | EC50 [µM], FXa generation assay with hFIXa [µM] |
| --- | --- | --- |
| B1 | < 0.5 |  |
| B2 | < 0.5 |  |
| B3 | < 0.5 |  |
| B4 | < 0.5 |  |
| B5 | > 1 |  |
| B6 | > 1 |  |
| B7 |  | < 0.5 |
| B8 | > 5 |  |
| B9 | > 1 |  |
| B10 | > 5 |  |
| B11 | > 10 |  |
| B12 | > 1 |  |
| B13 | > 1 |  |
| B14 | > 1 |  |
| B15 | > 1 |  |
| B16 | < 0.5 |  |
| B17 | > 1 |  |
| B18 |  | < 0.5 |
| B19 | < 0.5 |  |
| B20 | < 0.5 |  |

| Binder | EC50 [µM], FXa generation assay [µM] | EC50 [µM], FXa generation assay with hFIXa [µM] |
| --- | --- | --- |
| B21 | < 0.5 |  |
| B22 | > 1 |  |
| B23 | > 1 |  |
| B24 | > 1 |  |
| B25 | < 0.5 |  |
| B26 | > 1 |  |
| B27 |  | < 0.5 |
| B28 | > 10 |  |
| B29 | > 10 |  |
| B30 | > 1 |  |
| B31 | < 0.5 |  |
| B32 | > 4 |  |
| B33 | > 1 |  |
| B34 | > 1 |  |
| B35 | < 0.5 |  |
| B36 |  | < 0.5 |
| B37 | < 0.5 |  |
| B38 | > 1 |  |
| B39 | > 1 |  |
| B40 | > 1 |  |

Reference: patent US20140303084A1 (Biogen, published 2014)
